According to ChEMBL document CHEMBL1212772:

Columns and labels:
[1] = substrate: C[C@@H](O)[C@H]1C(=O)N2C(C(=O)O)=C(SCCNC=N)C[C@H]12; assay: (§1) Activity of Escherichia coli CTX-M-15
[2] = substrate: C[C@@H](O)[C@H]1C(=O)N2C(C(=O)O)=C(S[C@@H]3CN[C@H](C(=O)N(C)C)C3)[C@H](C)[C@H]12; assay: as §1
[3] = substrate: C[C@@H](O)[C@H]1C(=O)N2C(C(=O)O)=C(S[C@@H]3CN[C@H](CNS(N)(=O)=O)C3)[C@H](C)[C@H]12; assay: as §1
[4] = substrate: C[C@@H](O)[C@H]1C(=O)N2C(C(=O)O)=C(SCCNC=N)C[C@H]12; details: Escherichia coli
[5] = substrate: C[C@@H](O)[C@H]1C(=O)N2C(C(=O)O)=C(S[C@@H]3CN[C@H](C(=O)N(C)C)C3)[C@H](C)[C@H]12; details: Escherichia coli
[6] = substrate: C[C@@H](O)[C@H]1C(=O)N2C(C(=O)O)=C(S[C@@H]3CN[C@H](CNS(N)(=O)=O)C3)[C@H](C)[C@H]12; details: Escherichia coli
[7] = substrate: C[C@@H](O)[C@H]1C(=O)N2C(C(=O)O)=C(SCCNC=N)C[C@H]12; assay: (§2) Activity of Enterobacter cloacae AmpC
[8] = substrate: C[C@@H](O)[C@H]1C(=O)N2C(C(=O)O)=C(S[C@@H]3CN[C@H](C(=O)N(C)C)C3)[C@H](C)[C@H]12; assay: as §2
[9] = substrate: C[C@@H](O)[C@H]1C(=O)N2C(C(=O)O)=C(S[C@@H]3CN[C@H](CNS(N)(=O)=O)C3)[C@H](C)[C@H]12; assay: as §2
[10] = substrate: C[C@@H](O)[C@H]1C(=O)N2C(C(=O)O)=C(SCCNC=N)C[C@H]12; assay: (§3) Kcat/Km ratio of Enterobacter cloacae AmpC
[11] = substrate: C[C@@H](O)[C@H]1C(=O)N2C(C(=O)O)=C(S[C@@H]3CN[C@H](C(=O)N(C)C)C3)[C@H](C)[C@H]12; assay: as §3
[12] = substrate: C[C@@H](O)[C@H]1C(=O)N2C(C(=O)O)=C(S[C@@H]3CN[C@H](CNS(N)(=O)=O)C3)[C@H](C)[C@H]12; assay: as §3
[13] = substrate: CC(C)(O/N=C(\C(=O)N[C@@H]1C(=O)N2C(C(=O)[O-])=C(C[n+]3ccccc3)CS[C@H]12)c1csc(N)n1)C(=O)O; assay: (§4) Activity of Pseudomonas aeruginosa OXA-10
[14] = substrate: CC1(C)S[C@@H]2[C@H](NC(=O)Cc3ccccc3)C(=O)N2[C@H]1C(=O)O; assay: as §4
[15] = substrate: C[C@@H](O)[C@H]1C(=O)N2C(C(=O)O)=C(SCCNC=N)C[C@H]12; assay: as §4
[16] = substrate: C[C@@H](O)[C@H]1C(=O)N2C(C(=O)O)=C(S[C@@H]3CN[C@H](C(=O)N(C)C)C3)[C@H](C)[C@H]12; assay: as §4
[17] = substrate: C[C@@H](O)[C@H]1C(=O)N2C(C(=O)O)=C(S[C@@H]3CN[C@H](CNS(N)(=O)=O)C3)[C@H](C)[C@H]12; assay: as §4
[18] = substrate: O=C(Cc1cccs1)N[C@@H]1C(=O)N2C(C(=O)[O-])=C(C[n+]3ccccc3)CS[C@H]12; assay: as §4
[19] = substrate: CC1(C)S[C@@H]2[C@H](NC(=O)Cc3ccccc3)C(=O)N2[C@H]1C(=O)O; assay: (§5) Kcat/Km ratio of Pseudomonas aeruginosa OXA-10
[20] = substrate: O=C(Cc1cccs1)N[C@@H]1C(=O)N2C(C(=O)[O-])=C(C[n+]3ccccc3)CS[C@H]12; assay: as §5
[21] = substrate: CC(C)(O/N=C(\C(=O)N[C@@H]1C(=O)N2C(C(=O)[O-])=C(C[n+]3ccccc3)CS[C@H]12)c1csc(N)n1)C(=O)O; assay: (§6) Activity of Klebsiella pneumoniae KPC-2
[22] = substrate: CC1(C)S[C@@H]2[C@H](NC(=O)Cc3ccccc3)C(=O)N2[C@H]1C(=O)O; assay: as §6
[23] = substrate: C[C@@H](O)[C@H]1C(=O)N2C(C(=O)O)=C(SCCNC=N)C[C@H]12; assay: as §6
[24] = substrate: C[C@@H](O)[C@H]1C(=O)N2C(C(=O)O)=C(S[C@@H]3CN[C@H](C(=O)N(C)C)C3)[C@H](C)[C@H]12; assay: as §6
[25] = substrate: C[C@@H](O)[C@H]1C(=O)N2C(C(=O)O)=C(S[C@@H]3CN[C@H](CNS(N)(=O)=O)C3)[C@H](C)[C@H]12; assay: as §6
[26] = substrate: O=C(Cc1cccs1)N[C@@H]1C(=O)N2C(C(=O)[O-])=C(C[n+]3ccccc3)CS[C@H]12; assay: as §6
[27] = substrate: CC(C)(O/N=C(\C(=O)N[C@@H]1C(=O)N2C(C(=O)[O-])=C(C[n+]3ccccc3)CS[C@H]12)c1csc(N)n1)C(=O)O; assay: (§7) Kcat/Km ratio of Klebsiella pneumoniae KPC-2
[28] = substrate: CC1(C)S[C@@H]2[C@H](NC(=O)Cc3ccccc3)C(=O)N2[C@H]1C(=O)O; assay: as §7
[29] = substrate: C[C@@H](O)[C@H]1C(=O)N2C(C(=O)O)=C(SCCNC=N)C[C@H]12; assay: as §7
[30] = substrate: C[C@@H](O)[C@H]1C(=O)N2C(C(=O)O)=C(S[C@@H]3CN[C@H](C(=O)N(C)C)C3)[C@H](C)[C@H]12; assay: as §7
[31] = substrate: C[C@@H](O)[C@H]1C(=O)N2C(C(=O)O)=C(S[C@@H]3CN[C@H](CNS(N)(=O)=O)C3)[C@H](C)[C@H]12; assay: as §7
[32] = substrate: O=C(Cc1cccs1)N[C@@H]1C(=O)N2C(C(=O)[O-])=C(C[n+]3ccccc3)CS[C@H]12; assay: as §7
[33] = substrate: C[C@@H](O)[C@H]1C(=O)N2C(C(=O)O)=C(SCCNC=N)C[C@H]12; assay: (§8) Activity of Serratia marcescens SME-3
[34] = substrate: C[C@@H](O)[C@H]1C(=O)N2C(C(=O)O)=C(S[C@@H]3CN[C@H](C(=O)N(C)C)C3)[C@H](C)[C@H]12; assay: as §8
[35] = substrate: C[C@@H](O)[C@H]1C(=O)N2C(C(=O)O)=C(S[C@@H]3CN[C@H](CNS(N)(=O)=O)C3)[C@H](C)[C@H]12; assay: as §8
[36] = substrate: C[C@@H](O)[C@H]1C(=O)N2C(C(=O)O)=C(SCCNC=N)C[C@H]12; assay: (§9) Kcat/Km ratio of Serratia marcescens SME-3
[37] = substrate: C[C@@H](O)[C@H]1C(=O)N2C(C(=O)O)=C(S[C@@H]3CN[C@H](C(=O)N(C)C)C3)[C@H](C)[C@H]12; assay: as §9
[38] = substrate: C[C@@H](O)[C@H]1C(=O)N2C(C(=O)O)=C(S[C@@H]3CN[C@H](CNS(N)(=O)=O)C3)[C@H](C)[C@H]12; assay: as §9

B1: Beta-lactamase CTX-M (Escherichia coli), Q9EXV5 (protein)
chain: MVKKSLRQFTLMATATVTLLLGSVPLYAQTADVQQKLAELERQSGGRLGVALINTADNSQILYRADERFAMCSTSKVMAAAAVLKKSESEPNLLNQRVEIKKSDLVNYNPIAEKHVNGTMSLAELSAAALQYSDNVAMNKLIAHVGGPASVTAFARQLGDETFRLDRTEPTLNTAIPGDPRDTTSPRAMAQTLRNLTLGKALGDSQRAQLVTWMKGNTTGAASIQAGLPASWVVGDKTGSGGYGTTNDIAVIWPKDRAPLILVTYFTQPQPKAESRRDVLASAAKIVTDGL
- Km [1]: 120 µM
- kcat [1]: 0.17 s⁻¹
- Km [2]: 11 µM
- kcat [2]: 0.0042 s⁻¹
- Km [3]: 7.1 µM
- kcat [3]: 0.0018 s⁻¹
- kcat/Km [4]: 1400 M⁻¹ s⁻¹
- kcat/Km [5]: 380 M⁻¹ s⁻¹
- kcat/Km [6]: 250 M⁻¹ s⁻¹

B2: Beta-lactamase (Enterobacter cloacae), P05364 (protein)
chain: MMRKSLCCALLLGISCSALATPVSEKQLAEVVANTITPLMKAQSVPGMAVAVIYQGKPHYYTFGKADIAANKPVTPQTLFELGSISKTFTGVLGGDAIARGEISLDDAVTRYWPQLTGKQWQGIRMLDLATYTAGGLPLQVPDEVTDNASLLRFYQNWQPQWKPGTTRLYANASIGLFGALAVKPSGMPYEQAMTTRVLKPLKLDHTWINVPKAEEAHYAWGYRDGKAVRVSPGMLDAQAYGVKTNVQDMANWVMANMAPENVADASLKQGIALAQSRYWRIGSMYQGLGWEMLNWPVEANTVVEGSDSKVALAPLPVAEVNPPAPPVKASWVHKTGSTGGFGSYVAFIPEKQIGIVMLANTSYPNPARVEAAYHILEALQ
- Km [7]: 24 µM
- kcat [7]: 0.012 s⁻¹
- Km [8]: 9.8 µM
- kcat [8]: 0.00031 s⁻¹
- Km [9]: 9.6 µM
- kcat [9]: 0.00043 s⁻¹
- kcat/Km [10]: 500 M⁻¹ s⁻¹
- kcat/Km [11]: 32 M⁻¹ s⁻¹
- kcat/Km [12]: 45 M⁻¹ s⁻¹

B3: Beta-lactamase OXA-10 (Pseudomonas aeruginosa), P14489 (protein)
chain: MKTFAAYVIIACLSSTALAGSITENTSWNKEFSAEAVNGVFVLCKSSSKSCATNDLARASKEYLPASTFKIPNAIIGLETGVIKNEHQVFKWDGKPRAMKQWERDLTLRGAIQVSAVPVFQQIAREVGEVRMQKYLKKFSYGNQNISGGIDKFWLEGQLRISAVNQVEFLESLYLNKLSASKENQLIVKEALVTEAAPEYLVHSKTGFSGVGTESNPGVAWWVGWVEKETEVYFFAFNMDIDNESKLPLRKSIPTKIMESEGIIGG
- kcat [13]: < 0.0095 s⁻¹
- Km [14]: 7.9 µM
- kcat [14]: 86 s⁻¹
- kcat [15]: < 0.014 s⁻¹
- kcat [16]: < 0.005 s⁻¹
- kcat [17]: < 0.0073 s⁻¹
- Km [18]: 200 µM
- kcat [18]: 16 s⁻¹
- kcat/Km [19]: 1.1e+07 M⁻¹ s⁻¹
- kcat/Km [20]: 80000 M⁻¹ s⁻¹

B4: Carbapenem-hydrolyzing beta-lactamase KPC (Klebsiella pneumoniae), Q9F663 (protein)
chain: MSLYRRLVLLSCLSWPLAGFSATALTNLVAEPFAKLEQDFGGSIGVYAMDTGSGATVSYRAEERFPLCSSFKGFLAAAVLARSQQQAGLLDTPIRYGKNALVPWSPISEKYLTTGMTVAELSAAAVQYSDNAAANLLLKELGGPAGLTAFMRSIGDTTFRLDRWELELNSAIPGDARDTSSPRAVTESLQKLTLGSALAAPQRQQFVDWLKGNTTGNHRIRAAVPADWAVGDKTGTCGVYGTANDYAVVWPTGRAPIVLAVYTRAPNKDDKHSEAVIAAAARLALEGLGVNGQ
- Km [21]: 230 µM
- kcat [21]: 0.38 s⁻¹
- Km [22]: 30 µM
- kcat [22]: 60 s⁻¹
- Km [23]: 90 µM
- kcat [23]: 31 s⁻¹
- Km [24]: 13 µM
- kcat [24]: 3.6 s⁻¹
- Km [25]: 1.6 µM
- kcat [25]: 0.55 s⁻¹
- Km [26]: 510 µM
- kcat [26]: 390 s⁻¹
- kcat/Km [27]: 1700 M⁻¹ s⁻¹
- kcat/Km [28]: 2e+06 M⁻¹ s⁻¹
- kcat/Km [29]: 340000 M⁻¹ s⁻¹
- kcat/Km [30]: 280000 M⁻¹ s⁻¹
- kcat/Km [31]: 340000 M⁻¹ s⁻¹
- kcat/Km [32]: 760000 M⁻¹ s⁻¹

B5: Carbapenem-hydrolyzing beta-lactamase SME-3 (Serratia marcescens), Q6PRG8 (protein)
chain: MSNKVNFKTASFLFSVCLALSAFNAHANKSDAAAKQIKKLEEDFDGRIGVFAIDTGSGNTFGYRSDERFPLCSSFKGFLAAAVLERVQQKKLDINQKVKYESRDLEYYSPITTKYKGSGMTLGDMASAALQYSDNGATNIIMERFLGGPEGMTKFMRSIGDNEFRLDRWELELNTAIPGDKRDTSTPKAVANSLNKLALGNVLNAKVKAIYQNWLKGNTTGDARIRASVPADWVVGDKTGSCGAYGTANDYAVIWPKNRAPLIVSIYTTRKSKDDKHSDKTIAEASRIAIQAID
- Km [33]: 150 µM
- kcat [33]: 370 s⁻¹
- Km [34]: 5.8 µM
- kcat [34]: 3.2 s⁻¹
- Km [35]: 8.2 µM
- kcat [35]: 2.5 s⁻¹
- kcat/Km [36]: 2.5e+06 M⁻¹ s⁻¹
- kcat/Km [37]: 550000 M⁻¹ s⁻¹
- kcat/Km [38]: 300000 M⁻¹ s⁻¹
